We go through 6 molecules from PMC11906848, “Rational engineering of a thermostable α-oxoamine synthase biocatalyst expands the substrate scope and synthetic applicability” (Communications Chemistry, 2025).

The target of series [1] is T1, ThAOS (Thermus thermophilus, UniProt Q5SHZ8).
T1 construct: gene TTHA1582; recombinant in E. coli BL21(DE3), pET28a, TEV-cleavable N-terminal His6 tag; homodimer; active site includes V79 of the other monomer
Kind of series: UV-vis titration of PLP spectrum. Format: binding. The note with it: 0-16 mM; external aldimine and some quinonoid formation.
Target sequence in this assay (Q5SHZ8 whole entry): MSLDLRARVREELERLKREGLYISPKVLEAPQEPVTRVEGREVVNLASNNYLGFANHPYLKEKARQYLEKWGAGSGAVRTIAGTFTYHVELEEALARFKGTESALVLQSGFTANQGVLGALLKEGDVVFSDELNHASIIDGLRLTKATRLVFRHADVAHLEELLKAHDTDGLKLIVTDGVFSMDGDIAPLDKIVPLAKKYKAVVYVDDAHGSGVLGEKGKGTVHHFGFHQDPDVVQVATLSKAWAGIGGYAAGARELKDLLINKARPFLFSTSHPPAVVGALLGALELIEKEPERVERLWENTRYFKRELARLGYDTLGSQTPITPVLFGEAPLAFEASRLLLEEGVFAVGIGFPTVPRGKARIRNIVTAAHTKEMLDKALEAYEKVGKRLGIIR

The target in series [2] is T1, ThAOS. Put plainly: X-ray crystal structure (crystal soak), […] Å; UV-vis. The series is classed as binding. The note with it: covalent PLP:L-Pen thiazolidine adduct; carboxylate chelated by Arg366.
For series [3], the target named is T1, ThAOS. Put plainly: DTNB assay of CoASH release. To be noted: 16 mM L-Aba; 1 mM acetyl-CoA; HEPES pH 7.5; 50 °C. Format: biochemical.
Target sequence in this assay (Q5SHZ8 whole entry): as above
Series [4] deals with T1, ThAOS. Kind of series: UV-vis spectroscopy of purified holoenzyme. Format: binding. To be noted: covalent; internal aldimine.
Target sequence in this assay (Q5SHZ8 whole entry): as above
Substrate in series [5]: NCC(=O)O
Put plainly: DTNB assay of CoASH release. Format: biochemical, Thermus thermophilus. To be noted: acetyl-CoA co-substrate, HEPES pH 7.5, 50 °C. An excerpt:
(§1) DTNB assay of CoASH release on ThAOS | catalytic efficiency (kcat/KM) for all four original amino acid substrates was improved substantially

Substrate in series [6]: CC[C@H](N)C(=O)O
Put plainly: DTNB assay of CoASH release. The series is classed as biochemical, Thermus thermophilus. To be noted: acetyl-CoA co-substrate, HEPES pH 7.5, 50 °C.
From the text: as §1

Substrate in series [7]: N[C@@H](CO)C(=O)O
Kind of series: purified protein. The note with it: acetyl-CoA co-substrate, HEPES pH 7.5, 50 °C.

Substrate in series [8]: C[C@H](N)C(=O)O
Kind of series: purified protein. To be noted: acetyl-CoA co-substrate, HEPES pH 7.5, 50 °C.

Substrate in series [9]: NCC(=O)O
Put plainly: DTNB assay of CoASH release. The series is classed as biochemical, Thermus thermophilus. To be noted: acetyl-CoA co-substrate, HEPES pH 7.5, 50 °C. The source holds these as a separate data set.

Substrate in series [10]: CC[C@H](N)C(=O)O
Put plainly: DTNB assay of CoASH release. Format: biochemical, Thermus thermophilus. The note with it: acetyl-CoA co-substrate, HEPES pH 7.5, 50 °C. The source holds these as a separate data set.

Turning to `C[C@H](N)C(=O)O` [L-Ala], in [1], the “UV-vis titration of PLP spectrum” value is “L-Ala binding leads to a small amount of PLP: L-Ala quinonoid formation”.
As for `CC(C)(S)[C@H](N)C(=O)O` [L-Pen, L-penicillamine], the “X-ray crystal structure (crystal soak), 1.5 Å; UV-vis” value in [2] is on record as “The structure of ThAOS V79A PLP:L-Pen complex (PDB: 8S1Y)”.
As for `CC[C@H](N)C(=O)O` [L-Aba], the “DTNB assay of CoASH release” value in series [3] is “original set of four amino acid substrates (L-Aba, L-Ala, Gly and L-Ser)”.
For `Cc1ncc(COP(=O)(O)O)c(C=O)c1O` [PLP, pyridoxal 5’-phosphate], the “UV-vis spectroscopy of purified holoenzyme” value in series [4] is “corresponding to the tautomeric forms of the PLP-bound internal aldimines”.

B1: ThAOS (Thermus thermophilus HB8; V78A) (protein)
chain: MSLDLRARVREELERLKREGLYISPKVLEAPQEPVTRVEGREVVNLASNNYLGFANHPYLKEKARQYLEKWGAGSGAARTIAGTFTYHVELEEALARFKGTESALVLQSGFTANQGVLGALLKEGDVVFSDELNHASIIDGLRLTKATRLVFRHADVAHLEELLKAHDTDGLKLIVTDGVFSMDGDIAPLDKIVPLAKKYKAVVYVDDAHGSGVLGEKGKGTVHHFGFHQDPDVVQVATLSKAWAGIGGYAAGARELKDLLINKARPFLFSTSHPPAVVGALLGALELIEKEPERVERLWENTRYFKRELARLGYDTLGSQTPITPVLFGEAPLAFEASRLLLEEGVFAVGIGFPTVPRGKARIRNIVTAAHTKEMLDKALEAYEKVGKRLGIIR
notes: recombinant in E. coli BL21(DE3), pET28a, TEV-cleavable N-terminal His6 tag; homodimer; active site includes V79 of the other monomer
For the molecule B1, the Km (usually the substrate concentration at which the rate is half of its maximum) is 8360 ± 1730 µM in [5], 3120 ± 350 µM in series [6], 2520 ± 300 µM in series [7] and 1590 ± 250 µM in series [8]. Besides, the kcat (commonly the maximal rate divided by the concentration of active sites) came out at 3.89 ± 0.32 s⁻¹ in series [5], 2.25 ± 0.08 s⁻¹ in series [6], 3.81 ± 0.13 s⁻¹ in [7] and 1.23 ± 0.05 s⁻¹ in [8].

B2: ThAOS (Thermus thermophilus HB8; V78G) (protein)
chain: MSLDLRARVREELERLKREGLYISPKVLEAPQEPVTRVEGREVVNLASNNYLGFANHPYLKEKARQYLEKWGAGSGAGRTIAGTFTYHVELEEALARFKGTESALVLQSGFTANQGVLGALLKEGDVVFSDELNHASIIDGLRLTKATRLVFRHADVAHLEELLKAHDTDGLKLIVTDGVFSMDGDIAPLDKIVPLAKKYKAVVYVDDAHGSGVLGEKGKGTVHHFGFHQDPDVVQVATLSKAWAGIGGYAAGARELKDLLINKARPFLFSTSHPPAVVGALLGALELIEKEPERVERLWENTRYFKRELARLGYDTLGSQTPITPVLFGEAPLAFEASRLLLEEGVFAVGIGFPTVPRGKARIRNIVTAAHTKEMLDKALEAYEKVGKRLGIIR
notes: as for B1
Turning to B2, the Km in [9] was 9520 ± 1910 µM; in [10] it was 830 ± 150 µM; in series [7], 4280 ± 960 µM; in series [8], 2460 ± 50 µM. Moreover, the turnover number (kcat) in series [9] worked out at 5.12 ± 0.43 s⁻¹; in series [10], 1.09 ± 0.04 s⁻¹; in [7], 5.74 ± 0.43 s⁻¹; in series [8], 2.39 ± 0.15 s⁻¹.
